Measured values as given in the supplement of paper PMC11908140.

B1: library; numbered along this chain (parent)
chain: MRKPRAAVGSGHRKQAASQEGRQKHAKNNSQAKPSACDGLARQPEEVVLQASVSSYHLFRDVAEVTAFRGSLLSWYDQEKRDLPWRRRAEDEMDLDRRAYAVWVSEVMLQQTQVATVINYYTGWMQKWPTLQDLASASLEEVNQLWAGLGYYSRGRRLQEGARKVVEELGGHMPRTAETLQQLLPGVGRYTAGAIASIAFGQATGVVDGNVARVLCRVRAIGADPSSTLVSQQLWGLAQQLVDPARPGDFNQAAMELGATVCTPQRPLCSQCPVESLCRARQRVEQEQLLASGSLSGSPDVEECAPNTGQCHLCLPPSEPWDQTLGVVNFPRKASRKPPREESSATCVLEQPGALGAQILLVQRPNSGLLAGLWEFPSVTWEPSEQLQRKALLQELQRWAGPLPATHLRHLGEVVHTFSHIKLTYQVYGLALEGQTPVTTVPPGARWLTQEEFHTAAVSTAMKKVFRVYQGQQPGTCMGSKRSQVSSPCSRKKPRMGQQVLDNFFRSHISTDAHSLNSAAQ

Variants of: B1
Assay: 8OG:A repair function score (normalized; synonymous = 0, nonsense = -1) (normalized log-likelihood score); higher = more repair activity (WT-like)
Conditions: with 8OG:A DNA repair reporter (GFP) in HEK-293 MUTYH KO cells
In short: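 With 10 pg/ml doxycycline, MUTYH knockout HEK-293 cells carrying lentiviral MUTYH cDNA NNN codon-scan libraries were co-transfected with mCherry and an 8OG:A GFP repair reporter. Viable mCherry+ cells were sorted into GFP+ (repair) and GFP− bins at 72 h, three replicates per tile, and tile amplicons were sequenced. Per-tile Rosace fitness scores were then normalized into a repair function score anchored on synonymous and nonsense distributions. Medians were fixed at 0 for synonymous and -1 for nonsense, excluding variants under 300 counts per million at the start.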

8OG:A repair function score, by site and new letter:
P365: K 0.177, D 0.00966, F -0.154
T380: S 0.139, Y 0.0876, D 0.0495, E -0.0632, L -0.0431, G 0.0924, R 0.162, C -0.0502, P -0.128, V -0.0828, K -0.0484, Q 0.429, F 0.194, W -0.271, A 0.0285, I -0.128, H -0.465, M -0.0793, N -0.171
L370: H -0.297, F -0.461, M -0.659, C -0.0696, K -0.936, W -0.364, N -0.379, E -1.06, S -0.406, I -0.377, G -0.609, V -0.484, R -0.775, Y -0.258, A -0.326, P -0.657, T -0.332, D -1, Q -0.398
G368: W -0.913, N -0.146, S -0.236, L -0.532, F -0.769, M -0.799, H -0.275, T -0.332, A -0.292, P -0.423, C -0.369, E -0.692, Y -0.663, I -0.7, V -0.27, R -0.193, K -0.348, D -0.434, Q -0.304
A371: T -0.307, L -0.5, Q -0.374, K -0.182, H -0.324, Y -0.46, E -0.577, S -0.172, M -0.439, V -0.554, R -0.219, N -0.476, I -0.776, W -0.408, F -0.605, P -0.216, D -0.824, G 0.0402, C -0.182
N366: D -0.00541, K -0.0179, I -0.169, F -0.0908, S 0.0203, C -0.137, L -0.0714, M -0.0331, A 0.0425, T -0.00609, R -0.0785, H 0.288, E 0.176, Y 0.00766, G -0.066, W -0.042, Q 0.152, P -0.104, V -0.0917
W381: A 0.0585, M 0.148, D -0.141, L 0.07, I 0.0761, C 0.15, N 0.268, K -0.184, H 0.26, E 0.244, F -0.181, G 0.0649
P377: E -1.13, C -0.633, H -1.31, M -1.07, D -1.06, R -1.04, G -1.26, K -1.11, N -0.977, A -0.486, L -0.733, I -0.348, Q -0.969, V -0.171, W -1.42, S -0.809, Y -0.964, F -1.17, T -0.573
L369: K -0.206, V -0.297, G -0.359, D -0.723, N 0.0162, I -0.0978, S -0.169, E -0.807, A 0.0443, P 0.0626, F 0.0478, R 0.0308, Y 0.153, C -0.0782, Q 0.0329, T 0.0329, M 0.201, H -0.345, W 0.187
L373: P -1.03, D -1.15, N -0.777, F 0.16, K -0.314, A -0.596, Y -0.225, M -0.286, H -0.452, G -0.502, E -0.788, R -0.666, V -0.504, Q -0.26, I -0.315, T -0.0654, S -0.647, W -0.229, C -0.611
